The assay addresses T1, human orexin receptor 2 (human) (UniProt O43614).
T1 sequence: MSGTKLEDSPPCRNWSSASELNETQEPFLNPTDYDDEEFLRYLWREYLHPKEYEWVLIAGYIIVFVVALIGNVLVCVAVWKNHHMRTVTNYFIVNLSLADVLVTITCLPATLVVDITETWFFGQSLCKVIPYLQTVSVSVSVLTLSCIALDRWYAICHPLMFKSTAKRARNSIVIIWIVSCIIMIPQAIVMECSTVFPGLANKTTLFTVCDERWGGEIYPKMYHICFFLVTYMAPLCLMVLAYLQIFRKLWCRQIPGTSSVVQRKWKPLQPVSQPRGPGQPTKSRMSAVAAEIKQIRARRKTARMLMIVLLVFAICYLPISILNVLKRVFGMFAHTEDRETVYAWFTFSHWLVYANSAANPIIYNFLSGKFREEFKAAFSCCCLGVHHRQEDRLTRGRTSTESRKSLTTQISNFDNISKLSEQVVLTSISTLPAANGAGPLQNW

“orexin-B (from UniProt O43612 70-97) (peptide)” displayed an intracellular accumulation of IP1 in hOX2R/CHO-EA cells, EC50 of 3.2 nM; an intracellular phosphorylation of CREB (Ser133) in hOX2R/CHO-EA cells, EC50 of 4.7 nM; a β-arrestin recruitment in hOX2R/CHO-EA cells (PathHunter), EC50 of 4 nM.

Consider QPLPDCCRQKTCSCRLYELLHGAGNHAAGILTL [orexin-A], for which the intracellular accumulation of IP1 in hOX2R/CHO-EA cells, EC50 came out at 0.84 nM; the intracellular phosphorylation of CREB (Ser133) in hOX2R/CHO-EA cells, EC50 was 1.8 nM; the β-arrestin recruitment in hOX2R/CHO-EA cells (PathHunter), EC50 is 3 nM.

The values above are taken from PMC11379823.
